From PMC8458281, “Computational modeling and experimental validation of the EPI-X4/CXCR4 complex allows rational design of small peptide antagonists” (Communications Biology, 2021)

B1: WSC02 [human] / CXCR4 wt (transfected 293T cells) [human] (parent complex)
chain 1: IVRWSKKVPCVS
chain 2: MEGISIYTSDNYTEEMGSGDYDSMKEPCFREENANFNKIFLPTIYSIIFLTGIVGNGLVILVMGYQKKLRSMTDKYRLHLSVADLLFVITLPFWAVDAVANWYFGNFLCKAVHVIYTVNLYSSVLILAFISLDRYLAIVHATNSQRPRKLLAEKVVYVGVWIPALLLTIPDFIFANVSEADDRYICDRFYPNDLWVVVFQFQHIMVGLILPGIVILSCYCIIISKLSHSKGHQKRKALKTTVILILAFFACWLPYYIGISIDSFILLEIIKQGCEFENTVHKWISITEALAFFHCCLNPILYAFLGAKFKTSAQHALTSVSRGSSLKILSKGKRGGHSSVSTESESSSFHSS

Variants of: B1
Test: 12G5 antibody competition assay, flow cytometry on transfected 293T cells; 2 h incubation; IC50 set to 1000 µM if above the maximally used concentration; parent: 1e+03 nM; read off a plot

Variant	IC50 [µM]
chain 2 D97E	~8
chain 2 D97N	~380
chain 2 D97S	~320
chain 2 D97Q	~690

Second part, the variant after the results:

IC50 [µM]	Variant
~0.42	chain 2 D187E
~0.6	chain 2 V112A
~0.4	chain 2 V112L
~1.5	chain 2 L41A
~4.8	chain 2 L41A, chain 2 V112A
~0.75	chain 2 E277A
